Assays:
[1] = system: DNA (sequence derived from the mouse H19 promoter); assay: EMSA; type: binding; settings: purified recombinant protein, unmethylated or methylated oligos, 300 ng salmon sperm DNA competitor
Procedure: Expression and purification of recombinant His-ZNF512B protein was done as described ([32]). Briefly, pFastBac1 vectors were transformed into DH10Bac bacteria and viruses were generated according to the Bac-to-Bac™ Baculovirus Expression System Protocol (Invitrogen). Extracts were prepared 3 days after infection by washing the cells twice with ice cold PBS and incubation on ice for 10 min in hypotonic buffer (10 mM HEPES-KOH pH 7.9, 1.5 mM MgCl2, 10 mM KCl). After brief vortexing and centrifugation, the pellet (nuclei) was incubated for 20 min in hypertonic buffer (20 mM HEPES-KOH pH 7.9, 25% glycerol, 420 mM NaCl, 1.5 mM MgCl2, 0.2 mM EDTA). After centrifugation for 10 min at 16 000 × g the supernatant was stored at −20°C or directly used for electrophoretic mobility shift assays (EMSAs). Alternatively, the supernatant was purified by FPLC using the Äkta Start (Cytiva) via a His-Trap column (71502768) by standard procedures outlined in the instructions of the manufacturer.
EMSAs were performed as originally described ([34]) with the exception that 300 ng of salmon sperm DNA per reaction were used as an unspecific competitor. […]

[2] = system: 4xUAS-tk-luc reporter in HEK293T cells; assay: Luciferase reporter assay; type: cell-based; settings: GAL fusion, 72 h, three biological replicates
Procedure: Per well of a 6-well plate, 1.5 × 10^5 HEK293T cells were seeded and transfected on the next day using 1 μg of 4xUAS-tk-luc reporter plasmid, 0.5 μg GAL expression vector and 0.5 μg pCMV-lacZ vector for normalization. Cells were directly lysed in well after 72 h with 200 μl Lysis buffer (25 mM Tris/Cl pH 7.5, 8 mM MgCl2, 1 mM EDTA, 1% Triton™ X-100, 15% glycerin, 1 mM DTT) for 15 min at RT. Supernatants were used to measure luciferase activity by mixing 100 μl 1:1 with 90 mg/L D-Luciferin/0.8 mM ATP and quantifying emitted light after 5 s incubation with an Orion L plate reader (Titertek-Berthold). Values were normalized to β-galactosidase activity by adding 5 μL supernatant to 900 μl LacZ buffer (50 mM Na2HPO4, 10 mM KCl, 0.1 mM MgSO4, pH 7) and 100 μl 4 g/L OPNG/0.1 M KPO4. When a color change of the mixture occurred, absorbance at 420 nm was measured.

Molecule | DNA binding [1] | repression of luciferase reporter [2]
His-ZNF512B: purified recombinant His-ZNF512B protein (protein, UniProt Q96KM6 1-892, looked up, His tag, purified recombinant His-ZNF512B protein) Zinc finger protein 512B: MTDPFCVGGRRLPGSSKSGPGKDGSRKEVRLPMLHDPPKMGMPVVRGGQTVPGQAPLCFDPGSPASDKTEGKKKGRPKAENQALRDIPLSLMNDWKDEFKAHSRVKCPNSGCWLEFPSIYGLKYHYQRCQGGAISDRLAFPCPFCEAAFTSKTQLEKHRIWNHMDRPLPASKPGPISRPVTISRPVGVSKPIGVSKPVTIGKPVGVSKPIGISKPVSVGRPMPVTKAIPVTRPVPVTKPVTVSRPMPVTKAMPVTKPITVTKSVPVTKPVPVTKPITVTKLVTVTKPVPVTKPVTVSRPIVVSKPVTVSRPIAISRHTPPCKMVLLTRSENKAPRATGRNSGKKRAADSLDTCPIPPKQARPENGEYGPSSMGQSSAFQLSADTSSGSLSPGSRPSGGMEALKAAGPASPPEEDPERTKHRRKQKTPKKFTGEQPSISGTFGLKGLVKAEDKARVHRSKKQEGPGPEDARKKVPAAPITVSKEAPAPVAHPAPGGPEEQWQRAIHERGEAVCPTCNVVTRKTLVGLKKHMEVCQKLQDALKCQHCRKQFKSKAGLNYHTMAEHSAKPSDAEASEGGEQEERERLRKVLKQMGRLRCPQEGCGAAFSSLMGYQYHQRRCGKPPCEVDSPSFPCTHCGKTYRSKAGHDYHVRSEHTAPPPEEPTDKSPEAEDPLGVERTPSGRVRRTSAQVAVFHLQEIAEDELARDWTKRRMKDDLVPETARLNYTRPGLPTLNPQLLEAWKNEVKEKGHVNCPNDCCEAIYSSVSGLKAHLASCSKGAHLAGKYRCLLCPKEFSSESGVKYHILKTHAENWFRTSADPPPKHRSQDSLVPKKEKKKNLAGGKKRGRKPKERTPEEPVAKLPPRRDDWPPGCRDKGARGSTGRKVGVSKAPEK | DNA-binding protein (Figure 2F), independent of DNA methylation status | 
K423A: GAL-ZNF512B with K423A mutation, loss of NuRD binding (protein, left off: GFP, end not stated, kept) MTDPFCVGGRRLPGSSKSGPGKDGSRKEVRLPMLHDPPKMGMPVVRGGQTVPGQAPLCFDPGSPASDKTEGKKKGRPKAENQALRDIPLSLMNDWKDEFKAHSRVKCPNSGCWLEFPSIYGLKYHYQRCQGGAISDRLAFPCPFCEAAFTSKTQLEKHRIWNHMDRPLPASKPGPISRPVTISRPVGVSKPIGVSKPVTIGKPVGVSKPIGISKPVSVGRPMPVTKAIPVTRPVPVTKPVTVSRPMPVTKAMPVTKPITVTKSVPVTKPVPVTKPITVTKLVTVTKPVPVTKPVTVSRPIVVSKPVTVSRPIAISRHTPPCKMVLLTRSENKAPRATGRNSGKKRAADSLDTCPIPPKQARPENGEYGPSSMGQSSAFQLSADTSSGSLSPGSRPSGGMEALKAAGPASPPEEDPERTKHRRAQKTPKKFTGEQPSISGTFGLKGLVKAEDKARVHRSKKQEGPGPEDARKKVPAAPITVSKEAPAPVAHPAPGGPEEQWQRAIHERGEAVCPTCNVVTRKTLVGLKKHMEVCQKLQDALKCQHCRKQFKSKAGLNYHTMAEHSAKPSDAEASEGGEQEERERLRKVLKQMGRLRCPQEGCGAAFSSLMGYQYHQRRCGKPPCEVDSPSFPCTHCGKTYRSKAGHDYHVRSEHTAPPPEEPTDKSPEAEDPLGVERTPSGRVRRTSAQVAVFHLQEIAEDELARDWTKRRMKDDLVPETARLNYTRPGLPTLNPQLLEAWKNEVKEKGHVNCPNDCCEAIYSSVSGLKAHLASCSKGAHLAGKYRCLLCPKEFSSESGVKYHILKTHAENWFRTSADPPPKHRSQDSLVPKKEKKKNLAGGKKRGRKPKERTPEEPVAKLPPRRDDWPPGCRDKGARGSTGRKVGVSKAPEK |  | over 50%
